Data published in patent US20230322953A1 (HARBOUR BIOMED SHANGHAI, published 2023).

Key:
[1] = biological target: T1, human BCMA on NCI-H929 cells (ATCC, CRL-9068) (human, UniProt Q02223 1-184); assay: cell-based or functional assay
T1 sequence (looked up): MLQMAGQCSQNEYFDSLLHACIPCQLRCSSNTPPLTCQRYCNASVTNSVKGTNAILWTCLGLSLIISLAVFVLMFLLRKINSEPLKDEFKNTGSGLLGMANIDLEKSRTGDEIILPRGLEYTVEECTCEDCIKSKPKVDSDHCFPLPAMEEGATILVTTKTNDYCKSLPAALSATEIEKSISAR

[2] = biological target: T2, biotinylated human BCMA-Fc, Avitag recombinant protein (ACRO Biosystems, #BC7-H82F0) (human, UniProt Q02223 1-54, biotinylated (Avitag)); assay: BLI (Octet Red96e), biotinylated BCMA-Fc on SA sensor, 1:1 global fitting;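 note: Anti-BCMA antibodies analysed as binding partners of the captured BCMA antigen, with reference signals removed by double referencing before kinetic fitting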
T2 construct: extracellular domain; Bought protein; also called huBCMA.Fc; recombinant human BCMA-ECD-Fc
T2 sequence (looked up): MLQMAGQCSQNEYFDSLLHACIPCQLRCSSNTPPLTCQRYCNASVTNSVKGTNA

[3] = biological target: T3, cynomolgus monkey CD3 (TCR/CD3 complex) on cynomolgus monkey T cells (cynomolgus monkey); assay: flow cytometry (FACS) on cynomolgus monkey T cells
T3 construct: whole, on cells

[4] = biological target: T1, human BCMA on NCI-H929 cells (ATCC, …); assay: cell-based or functional assay; remark: listed apart in the source
[5] = biological target: T4, cynomolgus monkey BCMA (ACRO Biosystems, #BCA-C82F4) (cynomolgus monkey, UniProt A0A2K5UD97 1-53); assay: BLI (Octet Red96e), cyBCMA.Fc on SA sensor, 1:1 global fitting
T4 construct: Bought protein; also called cyBCMA.Fc

[6] = biological target: T4, cynomolgus monkey BCMA (ACRO …); assay: BLI; KD for cynomolgus monkey BCMA divided by KD for human BCMA
[7] = biological target: T5, human CD3 (TCR/CD3 complex) on human T cells (human, UniProt P07766 23-207); assay: flow cytometry (FACS) on human T cells, Experiment 3
T5 construct: whole, on cells

[8] = biological target: T5, human CD3 (TCR/CD3 complex) on human T …; assay: flow cytometry (FACS) on human T cells, Experiment 1
[9] = biological target: T1, human BCMA on NCI-H929 cells (ATCC, …); assay: cell-based or functional assay; remark: listed apart in the source

T4 sequence (A0A2K5UD97 entry or part of it): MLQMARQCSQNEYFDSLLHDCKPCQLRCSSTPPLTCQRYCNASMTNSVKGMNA
T5 sequence (P07766 23-207, one chain of several): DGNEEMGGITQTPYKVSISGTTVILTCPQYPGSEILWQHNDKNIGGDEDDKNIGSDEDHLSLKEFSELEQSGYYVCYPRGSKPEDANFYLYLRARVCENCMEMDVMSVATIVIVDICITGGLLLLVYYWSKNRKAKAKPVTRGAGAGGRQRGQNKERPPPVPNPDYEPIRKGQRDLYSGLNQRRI
T3 sequence (Q95LI5 22-198, one chain of several): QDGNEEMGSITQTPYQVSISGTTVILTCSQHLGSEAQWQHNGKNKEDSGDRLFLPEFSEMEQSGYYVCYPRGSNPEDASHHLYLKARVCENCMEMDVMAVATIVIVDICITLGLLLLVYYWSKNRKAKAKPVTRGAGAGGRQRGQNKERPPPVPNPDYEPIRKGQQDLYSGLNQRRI

B1: PR001990 (bispecific antibody, human IgG1, lambda, L234A L235A)
light: QAVVTQEPSLTVSPGGTVTLTCRSSTGAVTTSNYANWVQQKPGQAPRGLIGGTNKRAPWTPARFSGSLLGDKAALTLLGAQPEDEAEYFCALWYSNLWVFGGGTKLTVLGQPKAAPSVTLFPPSSEELQANKATLVCLISDFYPGAVTVAWKADSSPVKAGVETTTPSKQSNNKYAASSYLSLTPEQWKSHRSYSCQVTHEGSTVEKTVAPTECS
heavy: EVQLLESGGGLVQPGGSLRLSCAASGFTFNTYAMNWVRQAPGKGLEWVSRIRSKYNNYATYYADSVKDRFTISRDDSKSTLYLQMNSLRAEDTAVYYCVRHGNFGNSYVSWFAYWGQGTLVTVSSASTKGPSVFPLAPSSKSTSGGTAALGCLVKDYFPEPVTVSWNSGALTSGVHTFPAVLQSSGLYSLSSVVTVPSSSLGTQTYICNVNHKPSNTKVDKKVEPKSCDKTHTCPPCPAPEAAGGPSVFLFPPKPKDTLMISRTPEVTCVVVDVSHEDPEVKFNWYVDGVEVHNAKTKPREEQYNSTYRVVSVLTVLHQDWLNGKEYKCKVSNKALGAPIEKTISKAKGQPREPQVYTLPPCREEMTKNQVSLWCLVKGFYPSDIAVEWESNGQPENNYKTTPPVLDSDGSFFLYSKLTVDKSRWQQGNVFSCSVMHEALHNHYTQKSLSLSPGK
chain: EVQLVETGGGLIQPGGSLRLSCAASGFTVSDNYMTWVRQAPGKGLEWVSVIFSGGNTYYADSVKGRFTISRDNAKNTLYLQMNSLRAEDTALYYCARRNYDDTRGTDVFDIWGQGTMVTVSSASEPKSSDKTHTCPPCPAPEAAGGPSVFLFPPKPKDTLMISRTPEVTCVVVDVSHEDPEVKFNWYVDGVEVHNAKTKPREEQYNSTYRVVSVLTVLHQDWLNGKEYKCKVSNKALGAPIEKTISKAKGQPREPQVCTLPPSREEMTKNQVSLSCAVKGFYPSDIAVEWESNGQPENNYKTTPPVLDSDGSFFLVSKLTVDKSRWQQGNVFSCSVMHEALHNHYTQKSLSLSPGK
Killing EC50 (nM), T cell + NCI-H929, + 10 ng/mL sAPRIL [1]: 0.0879 nM
Killing EC50 (nM), T cell + NCI-H929, + 10 ng/mL sBAFF [1]: 0.0787 nM
Killing EC50 (nM), T cell + NCI-H929, + 100 ng/mL sAPRIL [1]: 0.154 nM
Killing EC50 (nM), T cell + NCI-H929, + 100 ng/mL sBAFF [1]: 0.094 nM
Killing EC50 (nM), T cell + NCI-H929, no soluble ligand [1]: 0.0733 nM
Kd [2]: 1950 pM
koff [2]: 0.000629 s⁻¹
kon [2]: 322000 M⁻¹ s⁻¹
Maximum MFI [3]: 15600 MFI
IFN-γ release, EC50 [4]: 1360 pM
IFN-γ release, Maximum [4]: 1230 pg/mL
IL-2 release, EC50 [4]: 5290 pM
IL-2 release, Maximum [4]: 185 pg/mL
IL-6 release, EC50 [4]: 8200 pM
IL-6 release, Maximum [4]: 273 pg/mL
IL-10 release, EC50 [4]: 1960 pM
IL-10 release, Maximum [4]: 777 pg/mL
NCI-H929 killing, EC50 [4]: 590 pM
NCI-H929 killing, Maximum killing rate % [4]: 61.4%
TNF-α release, EC50 [4]: 5490 pM
TNF-α release, Maximum [4]: 1200 pg/mL
Kd [5]: 3350 pM
koff [5]: 0.0025 s⁻¹
kon [5]: 746000 M⁻¹ s⁻¹
KD ratio (cy BCMA/hu BCMA) [6]: 1.72
Maximum MFI [7]: 350000 MFI
Maximum MFI [8]: 5450 MFI
Killing EC50 (nM), T cell + NCI-H929, + 62.5 ng/ml sBCMA [9]: 0.176 nM
Killing EC50 (nM), T cell + NCI-H929, + 125 ng/mL sBCMA [9]: 0.234 nM
Killing EC50 (nM), T cell + NCI-H929, + 250 ng/mL sBCMA [9]: 0.387 nM
Killing EC50 (nM), T cell + NCI-H929, + 500 ng/mL sBCMA [9]: 0.546 nM
Killing EC50 (nM), T cell + NCI-H929, no sBCMA [9]: 0.0787 nM
